From publication PMC8786824 (Scientific Reports, 2022)

Molecular target: MERS-CoV RBD (amino acids 367 to 588) of the spike glycoprotein (MERS-CoV, UniProt K9N5Q8)
Test: crystal structure
Settings: both partners purified

MERS-CoV RBD (amino acids 367 to 588) of the spike glycoprotein, sequence (K9N5Q8 367-588): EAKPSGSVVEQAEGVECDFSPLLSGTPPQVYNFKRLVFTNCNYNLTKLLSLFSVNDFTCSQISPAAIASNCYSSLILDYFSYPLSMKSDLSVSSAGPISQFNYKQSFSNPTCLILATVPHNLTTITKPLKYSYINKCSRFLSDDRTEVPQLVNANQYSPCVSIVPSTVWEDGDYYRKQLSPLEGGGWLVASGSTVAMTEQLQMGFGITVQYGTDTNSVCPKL

B1: KNIH90-F1 antigen-binding fragment (Fab) (Fab, V domains shown)
VH: QVQLVQSGAEVKRPGSSVKVSCKTSGGTFNNNAINWVRQAPGQGLEWMGGIIPFFGIAKYAQKFQGRVTITADESTSTAYMELSSLRSEDTAVYYCARDLPRESSYGSGSYYTHYYAMDVWGQGTTVTVSS
VL: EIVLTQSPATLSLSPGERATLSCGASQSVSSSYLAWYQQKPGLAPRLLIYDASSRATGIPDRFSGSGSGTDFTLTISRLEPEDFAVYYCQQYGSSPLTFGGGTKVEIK
notes: also called KNIH90-F1 Fab; nAb KNIH90-F1
**Q.** Does B1 bind?
**A.** binds
